Data on five molecules can be found in publication PMC6572788.

In assay [1] the target is stabilized version of human CFTR (stab-CFTR: 2PT/ΔRI/R1048A_1172X) (human) (UniProt P13569).
Assay [2] has as its target wt-CFTR fused to enhanced green fluorescent protein (His10-SUMO*-CFTR^FLAG-EGFP), PKA phosphorylated (human) (UniProt P13569).
Assay [3] shares this target. The source holds these as a separate data set.

Chain of wt-CFTR fused to enhanced green fluorescent protein (His10-SUMO*-CFTR^FLAG-EGFP), PKA phosphorylated (human) (P13569 whole entry, the tested form may be a part): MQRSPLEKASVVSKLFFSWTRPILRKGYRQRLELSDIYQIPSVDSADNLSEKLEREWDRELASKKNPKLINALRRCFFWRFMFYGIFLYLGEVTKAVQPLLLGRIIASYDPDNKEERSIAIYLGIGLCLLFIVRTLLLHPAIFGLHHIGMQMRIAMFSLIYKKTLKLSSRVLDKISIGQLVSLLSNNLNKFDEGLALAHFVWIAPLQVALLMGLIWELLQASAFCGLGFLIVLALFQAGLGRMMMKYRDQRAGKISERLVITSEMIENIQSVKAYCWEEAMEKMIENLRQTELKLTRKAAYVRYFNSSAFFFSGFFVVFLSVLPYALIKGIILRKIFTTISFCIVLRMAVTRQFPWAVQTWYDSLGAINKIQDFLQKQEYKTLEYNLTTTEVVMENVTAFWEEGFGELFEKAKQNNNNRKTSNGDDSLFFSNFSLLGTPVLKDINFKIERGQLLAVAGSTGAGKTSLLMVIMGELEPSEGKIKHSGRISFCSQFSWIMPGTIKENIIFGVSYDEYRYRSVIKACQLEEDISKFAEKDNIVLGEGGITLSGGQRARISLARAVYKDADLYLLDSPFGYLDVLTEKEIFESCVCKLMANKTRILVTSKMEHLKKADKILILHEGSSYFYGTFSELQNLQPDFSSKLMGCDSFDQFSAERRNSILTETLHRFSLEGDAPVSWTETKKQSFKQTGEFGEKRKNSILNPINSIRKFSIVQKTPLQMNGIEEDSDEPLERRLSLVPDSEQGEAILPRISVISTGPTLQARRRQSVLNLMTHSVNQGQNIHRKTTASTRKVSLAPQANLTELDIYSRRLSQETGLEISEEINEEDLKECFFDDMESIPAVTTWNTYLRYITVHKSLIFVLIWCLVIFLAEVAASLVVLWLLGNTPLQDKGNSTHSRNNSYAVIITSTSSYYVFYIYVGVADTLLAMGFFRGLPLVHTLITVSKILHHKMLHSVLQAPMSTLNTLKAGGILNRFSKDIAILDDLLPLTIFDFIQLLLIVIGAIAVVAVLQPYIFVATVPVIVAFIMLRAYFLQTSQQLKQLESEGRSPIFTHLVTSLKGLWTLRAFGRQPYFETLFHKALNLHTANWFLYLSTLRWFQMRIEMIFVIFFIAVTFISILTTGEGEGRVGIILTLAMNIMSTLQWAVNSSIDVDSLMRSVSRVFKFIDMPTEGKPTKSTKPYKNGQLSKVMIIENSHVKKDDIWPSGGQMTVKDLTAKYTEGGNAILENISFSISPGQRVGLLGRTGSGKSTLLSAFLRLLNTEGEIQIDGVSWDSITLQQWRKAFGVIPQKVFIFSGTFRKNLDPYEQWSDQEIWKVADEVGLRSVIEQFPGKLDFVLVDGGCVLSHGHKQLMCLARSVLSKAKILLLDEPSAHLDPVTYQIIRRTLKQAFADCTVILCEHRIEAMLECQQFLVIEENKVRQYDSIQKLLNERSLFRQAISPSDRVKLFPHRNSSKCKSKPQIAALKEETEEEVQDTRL
Chain of stabilized version of human CFTR (stab-CFTR: 2PT/ΔRI/R1048A_1172X) (human) (P13569 other isoform, or with tags, fused parts or gaps, stated change not applied): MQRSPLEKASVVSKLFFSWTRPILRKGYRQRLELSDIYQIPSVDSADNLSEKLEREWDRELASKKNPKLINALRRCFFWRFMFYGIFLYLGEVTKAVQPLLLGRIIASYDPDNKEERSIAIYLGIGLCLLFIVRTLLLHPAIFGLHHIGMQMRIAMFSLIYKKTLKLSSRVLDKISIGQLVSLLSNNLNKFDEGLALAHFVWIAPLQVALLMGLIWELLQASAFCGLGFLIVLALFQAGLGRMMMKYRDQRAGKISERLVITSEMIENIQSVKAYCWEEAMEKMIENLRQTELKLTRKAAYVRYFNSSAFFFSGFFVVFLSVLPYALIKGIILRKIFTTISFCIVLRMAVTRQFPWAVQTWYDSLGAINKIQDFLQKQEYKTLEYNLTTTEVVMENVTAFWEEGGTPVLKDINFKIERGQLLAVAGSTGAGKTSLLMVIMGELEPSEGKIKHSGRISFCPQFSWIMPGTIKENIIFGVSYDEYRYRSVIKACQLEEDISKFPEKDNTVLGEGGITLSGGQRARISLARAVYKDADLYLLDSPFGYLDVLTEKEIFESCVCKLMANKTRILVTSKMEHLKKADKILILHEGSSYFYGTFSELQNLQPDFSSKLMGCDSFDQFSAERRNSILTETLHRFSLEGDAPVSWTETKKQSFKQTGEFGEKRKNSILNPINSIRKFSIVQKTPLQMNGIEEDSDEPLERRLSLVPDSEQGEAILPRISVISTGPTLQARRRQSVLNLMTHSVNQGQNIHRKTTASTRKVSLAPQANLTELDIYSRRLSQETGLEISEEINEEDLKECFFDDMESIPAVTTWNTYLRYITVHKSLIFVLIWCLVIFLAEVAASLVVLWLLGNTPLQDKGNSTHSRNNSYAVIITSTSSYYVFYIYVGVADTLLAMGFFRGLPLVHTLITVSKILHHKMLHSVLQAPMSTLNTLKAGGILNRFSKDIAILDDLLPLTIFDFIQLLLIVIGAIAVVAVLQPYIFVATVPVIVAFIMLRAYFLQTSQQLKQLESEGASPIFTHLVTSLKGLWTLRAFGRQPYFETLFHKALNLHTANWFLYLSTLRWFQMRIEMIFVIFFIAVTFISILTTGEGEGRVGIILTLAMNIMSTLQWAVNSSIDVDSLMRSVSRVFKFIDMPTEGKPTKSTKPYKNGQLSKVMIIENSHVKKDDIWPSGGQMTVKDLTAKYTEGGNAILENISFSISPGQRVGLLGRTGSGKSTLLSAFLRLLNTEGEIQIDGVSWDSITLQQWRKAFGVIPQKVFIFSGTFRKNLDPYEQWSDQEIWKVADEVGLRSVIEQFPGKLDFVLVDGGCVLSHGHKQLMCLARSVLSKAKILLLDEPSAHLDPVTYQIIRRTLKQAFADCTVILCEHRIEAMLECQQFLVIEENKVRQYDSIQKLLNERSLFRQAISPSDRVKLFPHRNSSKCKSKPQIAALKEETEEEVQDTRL

B1: nanobody T4 (VHH)
VHH: QVQLQESGGGLVQAGGSLRLSCAASGSTFAIIAMGWYRQAPGKQRELVAVISTGDTRYADSVKGRFTISRDNAKNTVYLQMDSLRPEDTAVYYCNAAVQVRDYRNYWGQGTQVTVSS
In the case of B1, in assay [1], the thermostabilization of stab-CFTR by nanoDSF (~1:2 molar ratio) is 8 °C.

B2: nanobody T2a (VHH)
VHH: QVQLQESGGGLVQAGGSLRLSCAASGSIFRIDAMGWYRQAPGKQRELVAHSTSGGSTDYADSVKGRFTISRDNAKNTVYLQMNSLKPEDTAVYYCNADVRTRWYASNNYWGQGTQVTVSS
With B2, the ATPase activity of PKA-phosphorylated wt-CFTR (25 nM) with 1 µM nanobody, percent of the activity without nanobody in assay [2] worked out at 50%. Besides, the thermostabilization of stab-CFTR by nanoDSF (~1:2 molar ratio) in assay [1] amounted to 8 °C.

B3: nanobody G3a (VHH)
VHH: QVQLQESGGGLVQAGGSLRLSCTASGRAFSWYVMGWFRQAPGKEREFVATVSGNGSRRDYADSVKGRFTISRDNAKNTVYLQMNSLKPEDTAVYYCAASSTYYYTDPEKYDYWGQGTQVTVSS
In the case of B3, the shift of the temperature of thermal inactivation of the ATPase activity of wt-CFTR (30 min heat challenge; 15 µM G3a) in assay [3] stood at 3.1 °C.

B4: nanobody D12 (VHH)
VHH: QVQLQESGGGLVQAGSSLRLACAATGSIRSINNMGWYRQAPGKQRGMVAIITRVGNTDYADSVKGRFTISRDNAKNTVYLQMNSLKPEDTATYYCHAEITEQSRPFYLTDDYWGQGTQVTVSS
Consider B4, for which, in assay [2], the ATPase activity of PKA-phosphorylated wt-CFTR (25 nM) with 1 µM nanobody, percent of the activity without nanobody came to 50%. Also, the shift of the temperature of thermal inactivation of the ATPase activity of wt-CFTR (30 min heat challenge) in assay [3] was determined as 7 °C.

B5: nanobody T27 (VHH)
VHH: QVQLQESGGGLEQPGGSLRLSCATSGVIFGINAMGWYRQAPGKQRELVATFTSGGSTNYADFVEGRFTISRDNAKNTVYLQMNGLRPEDTAVYYCHATVVVSRYGLTYDYWGQGTQVTVSS
B5: the ATPase activity of PKA-phosphorylated wt-CFTR (25 nM) with 1 µM nanobody, percent of the activity without nanobody in assay [2] worked out at 30%.
